3 variants from IntAct's records for PubMed 21134644 can be followed below.

Sequences and labels used below:
B1: Integrin beta-3 (Homo sapiens), P05106 (parent)
chain: MRARPRPRPLWATVLALGALAGVGVGGPNICTTRGVSSCQQCLAVSPMCAWCSDEALPLGSPRCDLKENLLKDNCAPESIEFPVSEARVLEDRPLSDKGSGDSSQVTQVSPQRIALRLRPDDSKNFSIQVRQVEDYPVDIYYLMDLSYSMKDDLWSIQNLGTKLATQMRKLTSNLRIGFGAFVDKPVSPYMYISPPEALENPCYDMKTTCLPMFGYKHVLTLTDQVTRFNEEVKKQSVSRNRDAPEGGFDAIMQATVCDEKIGWRNDASHLLVFTTDAKTHIALDGRLAGIVQPNDGQCHVGSDNHYSASTTMDYPSLGLMTEKLSQKNINLIFAVTENVVNLYQNYSELIPGTTVGVLSMDSSNVLQLIVDAYGKIRSKVELEVRDLPEELSLSFNATCLNNEVIPGLKSCMGLKIGDTVSFSIEAKVRGCPQEKEKSFTIKPVGFKDSLIVQVTFDCDCACQAQAEPNSHRCNNGNGTFECGVCRCGPGWLGSQCECSEEDYRPSQQDECSPREGQPVCSQRGECLCGQCVCHSSDFGKITGKYCECDDFSCVRYKGEMCSGHGQCSCGDCLCDSDWTGYYCNCTTRTDTCMSSNGLLCSGRGKCECGSCVCIQPGSYGDTCEKCPTCPDACTFKKECVECKKFDRGALHDENTCNRYCRDEIESVKELKDTGKDAVNCTYKNEDDCVVRFQYYEDSSGKSILYVVEEPECPKGPDILVVLLSVMGAILLIGLAALLIWKLLITIHDRKEFAKFEEERARAKWDTANNPLYKEATSTFTNITYRGT

The variants in the assay derive from B1. To be noted: with tln1_mouse Tln1, P26039.
tln1_mouse Tln1, P26039, sequence (P26039 whole entry): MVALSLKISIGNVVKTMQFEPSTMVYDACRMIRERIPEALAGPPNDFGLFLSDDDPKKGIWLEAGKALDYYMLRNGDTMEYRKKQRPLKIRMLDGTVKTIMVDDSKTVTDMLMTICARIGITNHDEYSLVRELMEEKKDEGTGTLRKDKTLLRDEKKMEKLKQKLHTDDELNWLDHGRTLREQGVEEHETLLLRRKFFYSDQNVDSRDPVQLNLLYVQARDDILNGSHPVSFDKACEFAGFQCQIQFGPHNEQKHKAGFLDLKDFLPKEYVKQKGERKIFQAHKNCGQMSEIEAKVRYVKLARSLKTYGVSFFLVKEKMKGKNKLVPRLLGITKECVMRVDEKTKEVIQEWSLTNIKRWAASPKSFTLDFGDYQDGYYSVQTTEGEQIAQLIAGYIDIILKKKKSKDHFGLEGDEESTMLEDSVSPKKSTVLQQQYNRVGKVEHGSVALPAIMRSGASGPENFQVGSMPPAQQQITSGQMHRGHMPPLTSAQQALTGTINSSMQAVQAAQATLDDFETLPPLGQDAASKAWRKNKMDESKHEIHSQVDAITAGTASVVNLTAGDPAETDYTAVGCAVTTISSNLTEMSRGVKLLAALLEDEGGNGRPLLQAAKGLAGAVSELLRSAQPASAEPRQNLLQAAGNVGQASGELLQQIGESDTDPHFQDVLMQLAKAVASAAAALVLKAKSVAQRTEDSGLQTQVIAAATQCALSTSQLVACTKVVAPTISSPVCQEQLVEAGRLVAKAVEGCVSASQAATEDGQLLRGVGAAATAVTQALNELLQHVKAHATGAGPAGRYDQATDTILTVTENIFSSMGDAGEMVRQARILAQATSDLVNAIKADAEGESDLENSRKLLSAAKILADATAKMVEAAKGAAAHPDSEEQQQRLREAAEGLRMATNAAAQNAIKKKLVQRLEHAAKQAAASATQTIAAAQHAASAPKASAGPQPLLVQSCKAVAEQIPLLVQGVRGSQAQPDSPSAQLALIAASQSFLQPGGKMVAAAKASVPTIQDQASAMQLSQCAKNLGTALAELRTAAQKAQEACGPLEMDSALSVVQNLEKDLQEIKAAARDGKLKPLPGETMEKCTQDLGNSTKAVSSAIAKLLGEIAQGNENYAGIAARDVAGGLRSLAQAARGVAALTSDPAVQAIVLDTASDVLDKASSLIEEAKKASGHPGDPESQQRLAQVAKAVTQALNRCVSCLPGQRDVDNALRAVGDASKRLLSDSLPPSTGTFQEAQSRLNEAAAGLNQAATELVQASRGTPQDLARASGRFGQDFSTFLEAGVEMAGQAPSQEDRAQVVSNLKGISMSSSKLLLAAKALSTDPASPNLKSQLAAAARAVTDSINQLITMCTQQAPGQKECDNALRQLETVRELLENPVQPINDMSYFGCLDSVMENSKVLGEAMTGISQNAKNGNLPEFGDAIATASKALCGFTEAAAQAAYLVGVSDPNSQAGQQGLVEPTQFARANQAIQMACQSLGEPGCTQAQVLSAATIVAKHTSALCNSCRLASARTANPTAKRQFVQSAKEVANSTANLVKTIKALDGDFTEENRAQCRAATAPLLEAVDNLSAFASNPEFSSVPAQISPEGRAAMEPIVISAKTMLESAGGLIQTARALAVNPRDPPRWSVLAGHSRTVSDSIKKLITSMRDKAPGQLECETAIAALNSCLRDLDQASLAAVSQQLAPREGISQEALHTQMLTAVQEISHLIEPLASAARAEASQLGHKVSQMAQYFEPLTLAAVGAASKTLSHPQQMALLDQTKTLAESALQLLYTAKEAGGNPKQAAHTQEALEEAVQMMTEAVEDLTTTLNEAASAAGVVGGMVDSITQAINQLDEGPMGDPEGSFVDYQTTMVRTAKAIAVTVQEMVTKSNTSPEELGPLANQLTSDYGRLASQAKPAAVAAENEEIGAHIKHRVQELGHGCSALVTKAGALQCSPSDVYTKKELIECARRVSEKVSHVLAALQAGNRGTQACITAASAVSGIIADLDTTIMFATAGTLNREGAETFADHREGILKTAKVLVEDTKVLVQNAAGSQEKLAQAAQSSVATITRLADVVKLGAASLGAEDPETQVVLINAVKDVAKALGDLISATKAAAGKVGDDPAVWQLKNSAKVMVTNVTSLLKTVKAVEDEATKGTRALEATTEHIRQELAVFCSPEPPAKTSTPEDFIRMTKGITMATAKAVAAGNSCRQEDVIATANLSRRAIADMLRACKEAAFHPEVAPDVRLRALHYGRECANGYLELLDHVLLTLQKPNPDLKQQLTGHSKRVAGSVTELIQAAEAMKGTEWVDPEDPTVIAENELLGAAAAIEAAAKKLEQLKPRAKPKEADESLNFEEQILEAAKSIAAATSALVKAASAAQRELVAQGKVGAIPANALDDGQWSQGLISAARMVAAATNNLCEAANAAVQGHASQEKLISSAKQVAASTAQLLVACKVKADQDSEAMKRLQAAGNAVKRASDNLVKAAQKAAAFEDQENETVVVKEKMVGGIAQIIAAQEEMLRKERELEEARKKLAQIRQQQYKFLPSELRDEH
Regarding F753A;F756A, the “effect of a mutation on the interaction” value is reported as “decreasing interaction”. For the variant Y773A, the “effect of a mutation on the interaction” value is reported as “decreasing interaction”. For W765A, the “effect of a mutation on the interaction” value was “disrupting interaction”.
